{"source": "patent US20070117180A1", "about": "“Enzyme producing plasma protein fragment having inhibitory activity to metastasis and growth of cancer and plasma protein fragment produced by fragmentation by said enzyme” (priority 1998, published 2007)", "molecules": {"B1": {"name": "plasminogen fragments: plasminogen fragments comprising Kringles 1 to 4 produced by cleavage of plasminogen with PACE4 (protein)", "chain": "VIMAENRKSSIIIRMRDVVLFEKKVYLSECKTGNGKNYRGTMSKTKNGITCQKWSSTSPHRPRFSPATHPSEGLEENYCRNPDNDPQGPWCYTTDPEKRYDYCDILECEEECMHCSGENYDGKISKTMSGLECQAWDSQSPHAHGYIPSKFPNKNLKKNYCRNPDRELRPWCFTTDPNKRWELCDIPRCTTPPPSSGPTYQCLKGTGENYRGNVAVTVSGHTCQHWSAQTPHTHNRTPENFPCKNLDENYCRNPDGKRAPWCHTTNSQVRWEYCKIPSCDSSPVSTEQLAPTAPPELTPVVQDCYHGDGQSYRGTSSTTTTGKKCQSWSSMTPHRHQKTPENYPNAGLTMNYCRNPDADKGPWCFTTDPSVRWEYCNL"}}, "key": {"[1]": {"assay": "General pharmacological test, effects on the respiratory and circulatory organs", "assay_type": "in vivo", "conditions": "Beagle dog"}, "Lung cancer cells (LL/2)": {"system": "Lung cancer cells (LL/2)", "assay": "Test for inhibitory activity to metastasis and growth of cancer (number of nodes on the lung surface)", "assay_type": "in vivo, mice", "protocol": "The protein fragments prepared as described above were dissolved in a physiological saline and used as a sample for animal tests. As a system for estimating an inhibitory effect to growth of metastasized cancerous focus, cancer capable of metastasis and growth was transplanted to mice where distally metastasized cancerous focus was observed. Lung cancer cells (LL/2; Dainippon Seiyaku K.K.) were subcutaneously transplanted to mice at the back. The animals were bred until a primary cancerous focus grows up to a predetermined size and the primary focus was then removed surgically. The sample was administered to mice intraperitoneally at 1 mg/mouse/day for 10 days. […]\nAfter completion of each test, mice were dissected. The number of nodes on the lung surface, in case of test for inhibitory activity to metastasis and growth of cancer, or a weight of the lung, for test for inhibitory activity to growth of metastasized cancerous focus, was measured respectively and compared with control groups (Mann Whetney U test). […] In test for inhibitory activity to growth of metastasized cancerous focus, the lung was measured 0.44±0.28 g (n=6) for the control group while it was measured 0.23±0.08 g (n=6) for the group administered with the plasminogen fragment."}, "[2]": {"system": "Lewis lung cancer cells (LL/2)", "assay": "Test for inhibitory activity to growth of metastasized cancerous focus (weight of the lung)", "assay_type": "in vivo, C57B1 mice", "conditions": "n=6, control 0.44±0.28", "protocol": "The protein fragments prepared as described above were dissolved in a physiological saline and used as a sample for animal tests. As a system for estimating an inhibitory effect to growth of metastasized cancerous focus, cancer capable of metastasis and growth was transplanted to mice where distally metastasized cancerous focus was observed. Lung cancer cells (LL/2; Dainippon Seiyaku K.K.) were subcutaneously transplanted to mice at the back. The animals were bred until a primary cancerous focus grows up to a predetermined size and the primary focus was then removed surgically. […] As a control, mice were administered with a physiological saline alone as used for dissolving the lyophilized sample (test for inhibitory activity to growth of metastasized cancerous focus).\nAfter completion of each test, mice were dissected. The number of nodes on the lung surface, in case of test for inhibitory activity to metastasis and growth of cancer, or a weight of the lung, for test for inhibitory activity to growth of metastasized cancerous focus, was measured respectively and compared with control groups (Mann Whetney U test). […] In test for inhibitory activity to growth of metastasized cancerous focus, the lung was measured 0.44±0.28 g (n=6) for the control group while it was measured 0.23±0.08 g (n=6) for the group administered with the plasminogen fragment. […]"}, "[3]": {"system": "bovine aorta endothelial (BAE) cells", "assay": "Test for inhibitory activity to growth of vascular endothelial cells, bovine aorta endothelial cells", "assay_type": "cell-based", "design": "dose or concentration left out as unconfirmed", "conditions": "cell count after 72 hours, plasminogen fragments", "protocol": "The activity of the plasminogen fragments was also estimated as described by O'Reilly et al. using bovine aorta endothelial (BAE) cells purchased from Sanko Jun-yaku K.K. BAE cells were cultured for maintenance on a 24-well plate (manufactured by Iwaki Glass K.K.) coated with gelatin in a DMEM basal medium containing 10% fetal calf serum (FCS), 3 ng/ml basic FGF (bFGF), 1% glutamine, 1% penicillin and 1% streptomycin at 5% CO2. BAE cells were plated on a 24-well gelatin-coated plate at 12,500 cells/well and cultured on the basal medium deprived of bFGF for 24 hours. […] contained 5% FCS but was deprived of bFGF and the plasminogen fragments were reacted with the cells at 37° C. for 20 minutes. A physiological saline was used as a negative control whereas angiostatin (Angiostatin, manufactured by Technoclone) was used as a positive control. After reaction, the basal medium containing 5% FCS and 2 ng/ml bFGF was added and the cells were cultured at 37° C. for additional 72 hours. The cells were peeled off the well with trypsin/EDTA solution and counted with Coulter counter (manufactured by Coulter)."}, "[4]": {"design": "species or system mice", "conditions": "mouse, in vivo, iv"}}}
{"molecule": "B1", "values": [{"measurement": "safety in general pharmacological test (respiratory and circulatory organs)", "setting": "[1]", "result": "confirmed for their safety"}, {"measurement": "number of nodes representing metastasis and growth of cancer", "setting": "Lung cancer cells (LL/2); 1 mg/mouse/day intraperitoneally for 10 days after removal of primary focus, n=6, control 6.3±0.2", "result": "2.1 ± 0.8"}, {"measurement": "inhibitory activity to metastasis and growth of cancer cells", "setting": "Lung cancer cells (LL/2); mouse model in which Lewis lung cancer was transplanted", "result": "had an inhibitory activity to metastasis and growth of cancer cells"}, {"measurement": "weight of the lung", "setting": "[2]; 25 μg/animal intraperitoneally for 10 days, dissected Day 11", "result": "0.23 ± 0.08", "unit": "g"}, {"measurement": "weight of the lung", "setting": "[2]; 1 mg/mouse/day intraperitoneally for 10 days", "result": "0.23 ± 0.08", "unit": "g"}, {"measurement": "inhibitory activity to growth of the vascular endothelial cells", "setting": "[3]", "result": "no inhibitory activity"}, {"measurement": "inhibitory activity to growth of the vascular endothelial cells", "setting": "[3]; listed as plasminogen fragment", "result": "inhibitory effects to its growth have not been obtained"}, {"measurement": "safety in single-dose toxicity test", "setting": "[4]", "result": "confirmed for their safety"}]}
